Experimental data from patent US20230176070A1.

molecular target: glutathione S-transferase [GST: P08515]; assay: indirect ELISA, GST coated
Sequence (P08515 whole entry): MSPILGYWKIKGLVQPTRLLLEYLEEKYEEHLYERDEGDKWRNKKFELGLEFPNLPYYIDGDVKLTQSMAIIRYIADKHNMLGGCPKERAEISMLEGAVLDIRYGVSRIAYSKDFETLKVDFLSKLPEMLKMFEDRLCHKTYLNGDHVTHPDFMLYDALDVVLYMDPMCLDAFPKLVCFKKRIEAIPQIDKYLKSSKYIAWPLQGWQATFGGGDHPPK

Row | ELISA affinity (LogIC50 (oD450nm)) | Binder
1 | 1.15 | G91 (VHH) VHH: EVQLVESGGGLVQAGGSLRLSCAASGRTFSDYPMAWFRQALGKEREFLATISTSGSRTMYADSVKGRFTISRDNAKNMMYLQMNSLKPEDAAVYYCAARQGSYYSDYNRALPGEYHYWGQGTQVTVSS
2 | 6.77 | G96 (VHH) VHH: DVQLVESGGGLVQAGGSLKLSCAAFGVTFDINTIAWYRQAPGKQREFVAHITSGGTTYYADSVKARFTMSRDSAKNTVYLQMNNLKPEDTAVYYCNVNPTWPYSGEVDYWGQGTQVTVSS
3 | 4.66 | G8 (VHH) VHH: QVQLVESGGGLVQAGGSLRLSCAASGITSSIASMGWFRQAPGKEEEFVARIRWNTDNTYYADSVKGRFTISRDNAQNTVYLQMNRLKPEDTAVYYCVARRGWSDLLYDYRGQGTQVTVSS
4 | 5.54 | G86 (VHH) VHH: EVQLVESGGGLVQAGDSLRLSCAASGRTFSSYTMGWFRQAPGKEREFVAGIRWSGGSTYFTNYEDSVKGRFTISKDNAKNTVFLQMNSLRPEDTAVYYCAFTGHYSTYDSPQRYDYWGQGTQVTVSS
5 | 3.3 | G97 (VHH) VHH: EVQLVESGGGLVQAGGSLRLSCTASRSTFRVNPAGWYRQAPGKERELVARITSGGSTNYADSVKGRFTISRDNAKNTVYLQMNSLKPEDTAVYYCNVPCYMEDGYEHDAWGQGTQVTVSS
6 | 5.83 | G90 (VHH) VHH: DVQLVESGGGLVQAGGSLRLSCAASGLTFSNYAMGWFRQAPGKEREFAAGITWNGGASHYADSVKGRFTISRDNAQNTVYLQMNSLKPEDTAVYYCAARLGSVAYPGLRYDYWGQGTQVTVSS
7 | 2.08 | G78 (VHH) VHH: DVQLVESGGGLVQAGGSLRLSCTASQSILYINVMGWYRQAPGKQRELVAEIPTGGNTDYADSVKGRFTISRDNVKNTVSLQMNSLKPEDTAVYYCNVRGGVLSPYDYWGQGTQVTVSS
8 | 4.43 | G80 (VHH) VHH: QVQLVESGGGLVQAGASLRLSCAASRGTFSSYTMGWFRQAPGKERLFVASISRDGGTTYYADSVKGRFTISRDNAENILYLQMNSLKPEDTAVYYCAAASRHPSTWEVWGLEYYYWGQGTQVTVSS
9 | 5.74 | G89 (VHH) VHH: EVQLVESGGGLVQAGGSLSLSCAASGSINSINAMGWFRQAPGKQRELVATITRGGSTNYADSVKGRFTISIDNAKNTVYLQMNSLKPEDTAVYYCNADRGTDDGWLYDYWGQGTQVTVSS
10 | 2.07 | G79 (VHH) VHH: DVQLVESGGGLVQAGGSLRLSCATSGRTFSTYAAGWFRQRPGKEREFVATIHWNDGRTLYADSVKGRFTLSRDNAQNTVYLQMNSLKPEDTAVYYCAAYTYRIGSYDVSTSQGYDYWGQGTQVTVSS
11 | 4.67 | G98 (VHH) VHH: QVQLVESGGGLVQAGDSLRLSCATSGRTFSTYAAGWFRQRPGKEREFVATIHWNDGRTLYADSVKGRFTLSRDNAQNTVYLQMNSLKPEDTAVYYCAASTYRIGSYDVSTSQGYDYWGQGTQVTVSS
12 | 2.93 | G1 (VHH) VHH: QVQLVESGGGLVQAGGSLRLSCAAPGSTFSTNIIAWYRQPPGKQRELVAAIGGPGSTNYADSVKGRFTISRDNAKNTGYLQMKSLKPDDTAVYYCNMVTQRGNEYWGQGTQVTVSS
13 | 2.16 | G93 (VHH) VHH: QVQLVESGGGLVQPGGSLRLSCAASGSGFSSSIIGWHRQAPGKQRELVAAIGGPGSTNYADSVKGRFTISRDNAKNTAYLQMNNLKPEDSAVYYCEATTRSGREYWGQGTQVTVSS
